Measured values: article PMC11470957, “Principles of paralog-specific targeted protein degradation engaging the C-degron E3 KLHDC2” (Nature Communications, 2024)

Molecular target: KLHDC2 substrate binding domain (KLHDC2^SBD, 15-361) (UniProt Q9Y2U9)
Sequence (Q9Y2U9 15-361): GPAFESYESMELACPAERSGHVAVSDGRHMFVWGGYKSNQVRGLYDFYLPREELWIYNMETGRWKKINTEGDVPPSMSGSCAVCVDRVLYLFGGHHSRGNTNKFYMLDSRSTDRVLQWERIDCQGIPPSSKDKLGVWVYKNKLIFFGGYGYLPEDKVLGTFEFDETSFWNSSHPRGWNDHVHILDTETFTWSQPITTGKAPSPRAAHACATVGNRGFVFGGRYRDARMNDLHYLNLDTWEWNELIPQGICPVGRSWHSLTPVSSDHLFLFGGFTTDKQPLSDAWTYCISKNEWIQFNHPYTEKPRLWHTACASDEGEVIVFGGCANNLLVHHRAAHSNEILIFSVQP

Question: For “BRD3^BD2 (second bromodomain of BRD3, residues 306-416) (from UniProt Q15059 306-416) (domain or fragment)”, which improvement of the IC50 of inhibition of KLHDC2 di-Gly substrate ubiquitylation, SJ46421-BRD3^BD2 against SJ46421 alone (orders-of-magnitude) is on record?
Answer: 2
